Laboratory results published in PMC5609712 (Molecular cell, 2017).

B1: Exonuclease 1, biotinylated, full length (enzyme, human, UniProt Q9UQ84 1-846, looked up)
chain: MGIQGLLQFIKEASEPIHVRKYKGQVVAVDTYCWLHKGAIACAEKLAKGEPTDRYVGFCMKFVNMLLSHGIKPILVFDGCTLPSKKEVERSRRERRQANLLKGKQLLREGKVSEARECFTRSINITHAMAHKVIKAARSQGVDCLVAPYEADAQLAYLNKAGIVQAIITEDSDLLAFGCKKVILKMDQFGNGLEIDQARLGMCRQLGDVFTEEKFRYMCILSGCDYLSSLRGIGLAKACKVLRLANNPDIVKVIKKIGHYLKMNITVPEDYINGFIRANNTFLYQLVFDPIKRKLIPLNAYEDDVDPETLSYAGQYVDDSIALQIALGNKDINTFEQIDDYNPDTAMPAHSRSHSWDDKTCQKSANVSSIWHRNYSPRPESGTVSDAPQLKENPSTVGVERVISTKGLNLPRKSSIVKRPRSAELSEDDLLSQYSLSFTKKTKKNSSEGNKSLSFSEVFVPDLVNGPTNKKSVSTPPRTRNKFATFLQRKNEESGAVVVPGTRSRFFCSSDSTDCVSNKVSIQPLDETAVTDKENNLHESEYGDQEGKRLVDTDVARNSSDDIPNNHIPGDHIPDKATVFTDEESYSFESSKFTRTISPPTLGTLRSCFSWSGGLGDFSRTPSPSPSTALQQFRRKSDSPTSLPENNMSDVSQLKSEESSDDESHPLREEACSSQSQESGEFSLQSSNASKLSQCSSKDSDSEESDCNIKLLDSQSDQTSKLRLSHFSKKDTPLRNKVPGLYKSSSADSLSTTKIKPLGPARASGLSKKPASIQKRKHHNAENKPGLQIKLNELWKNFGFKKDSEKLPPCKKPLSPVRDNIQLTPEAEEDIFNKPECGRVQRAIFQ
modifications: biotinylated (co-infected with a BirA virus)
B2: Exo1(NTD), catalytic Exo1 core, N-terminal domain encoding amino acids 1-352, biotinylated (domain or fragment, human, UniProt Q9UQ84 1-352, looked up)
chain: MGIQGLLQFIKEASEPIHVRKYKGQVVAVDTYCWLHKGAIACAEKLAKGEPTDRYVGFCMKFVNMLLSHGIKPILVFDGCTLPSKKEVERSRRERRQANLLKGKQLLREGKVSEARECFTRSINITHAMAHKVIKAARSQGVDCLVAPYEADAQLAYLNKAGIVQAIITEDSDLLAFGCKKVILKMDQFGNGLEIDQARLGMCRQLGDVFTEEKFRYMCILSGCDYLSSLRGIGLAKACKVLRLANNPDIVKVIKKIGHYLKMNITVPEDYINGFIRANNTFLYQLVFDPIKRKLIPLNAYEDDVDPETLSYAGQYVDDSIALQIALGNKDINTFEQIDDYNPDTAMPAHSR
B3: Nbs1, flag-tagged, purified alone (natural protein, human, UniProt O60934 1-754, looked up)
chain: MWKLLPAAGPAGGEPYRLLTGVEYVVGRKNCAILIENDQSISRNHAVLTANFSVTNLSQTDEIPVLTLKDNSKYGTFVNEEKMQNGFSRTLKSGDGITFGVFGSKFRIEYEPLVACSSCLDVSGKTALNQAILQLGGFTVNNWTEECTHLVMVSVKVTIKTICALICGRPIVKPEYFTEFLKAVESKKQPPQIESFYPPLDEPSIGSKNVDLSGRQERKQIFKGKTFIFLNAKQHKKLSSAVVFGGGEARLITEENEEEHNFFLAPGTCVVDTGITNSQTLIPDCQKKWIQSIMDMLQRQGLRPIPEAEIGLAVIFMTTKNYCDPQGHPSTGLKTTTPGPSLSQGVSVDEKLMPSAPVNTTTYVADTESEQADTWDLSERPKEIKVSKMEQKFRMLSQDAPTVKESCKTSSNNNSMVSNTLAKMRIPNYQLSPTKLPSINKSKDRASQQQQTNSIRNYFQPSTKKRERDEENQEMSSCKSARIETSCSLLEQTQPATPSLWKNKEQHLSENEPVDTNSDNNLFTDTDLKSIVKNSASKSHAAEKLRSNKKREMDDVAIEDEVLEQLFKDTKPELEIDVKVQKQEEDVNVRKRPRMDIETNDTFSDEAVPESSKISQENEIGKKRELKEDSLWSAKEISNNDKLQDDSEMLPKKLLLTEFRSLVIKNSTSRNPSGINDDYGQLKNFKKFKKVTYPGAGKLPHIIGGSDLIAHHARKNTELEEWLRQEMEVQNQHAKEESLADDLFRYNPYLKRRR

Legend:
Test in all cases: pull-down
[1] = biological target: Mre11-Rad50-Nbs1 complex (triple flag on Mre11) (human, UniProt P49959 1-708; Q92878 1-1312; O60934 1-754)
Sequence of Mre11-Rad50-Nbs1 complex (triple flag on Mre11) (Q92878 whole entry, one chain of several): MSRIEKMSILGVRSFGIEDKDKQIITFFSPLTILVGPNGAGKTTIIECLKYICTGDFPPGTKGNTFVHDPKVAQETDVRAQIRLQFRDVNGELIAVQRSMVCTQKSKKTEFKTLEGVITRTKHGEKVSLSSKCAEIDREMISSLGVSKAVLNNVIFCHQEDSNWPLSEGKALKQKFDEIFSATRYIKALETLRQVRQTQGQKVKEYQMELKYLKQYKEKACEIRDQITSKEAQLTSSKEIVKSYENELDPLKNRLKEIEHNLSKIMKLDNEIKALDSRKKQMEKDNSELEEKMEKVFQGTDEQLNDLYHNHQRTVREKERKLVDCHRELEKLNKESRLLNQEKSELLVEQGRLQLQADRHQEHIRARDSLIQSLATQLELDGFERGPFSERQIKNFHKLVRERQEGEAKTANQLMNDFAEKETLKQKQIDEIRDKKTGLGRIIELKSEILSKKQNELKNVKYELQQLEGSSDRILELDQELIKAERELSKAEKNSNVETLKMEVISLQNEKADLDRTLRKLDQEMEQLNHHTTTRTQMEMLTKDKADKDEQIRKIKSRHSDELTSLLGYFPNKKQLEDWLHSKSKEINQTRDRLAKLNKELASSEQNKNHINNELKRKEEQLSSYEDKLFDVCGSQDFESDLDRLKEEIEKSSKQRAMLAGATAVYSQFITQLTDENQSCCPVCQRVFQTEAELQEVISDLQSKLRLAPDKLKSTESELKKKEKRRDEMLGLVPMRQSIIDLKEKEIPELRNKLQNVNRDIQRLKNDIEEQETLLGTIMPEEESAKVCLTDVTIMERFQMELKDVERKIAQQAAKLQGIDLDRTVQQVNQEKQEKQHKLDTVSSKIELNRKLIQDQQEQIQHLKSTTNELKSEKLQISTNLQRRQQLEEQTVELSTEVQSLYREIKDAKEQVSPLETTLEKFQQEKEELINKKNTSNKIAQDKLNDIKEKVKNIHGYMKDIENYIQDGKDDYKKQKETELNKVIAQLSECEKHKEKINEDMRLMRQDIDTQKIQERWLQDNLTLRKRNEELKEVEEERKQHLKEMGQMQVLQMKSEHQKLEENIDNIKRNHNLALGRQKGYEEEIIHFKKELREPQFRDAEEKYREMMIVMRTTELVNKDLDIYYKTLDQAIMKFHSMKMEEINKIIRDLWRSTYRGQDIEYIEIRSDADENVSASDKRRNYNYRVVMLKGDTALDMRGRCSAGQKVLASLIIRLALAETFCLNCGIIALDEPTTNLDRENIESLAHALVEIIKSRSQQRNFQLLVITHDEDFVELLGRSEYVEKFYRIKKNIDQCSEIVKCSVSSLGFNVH

[2] = biological target: T1, Mre11, flag-tagged, purified alone (human, UniProt P49959 1-708)
T1 sequence (looked up): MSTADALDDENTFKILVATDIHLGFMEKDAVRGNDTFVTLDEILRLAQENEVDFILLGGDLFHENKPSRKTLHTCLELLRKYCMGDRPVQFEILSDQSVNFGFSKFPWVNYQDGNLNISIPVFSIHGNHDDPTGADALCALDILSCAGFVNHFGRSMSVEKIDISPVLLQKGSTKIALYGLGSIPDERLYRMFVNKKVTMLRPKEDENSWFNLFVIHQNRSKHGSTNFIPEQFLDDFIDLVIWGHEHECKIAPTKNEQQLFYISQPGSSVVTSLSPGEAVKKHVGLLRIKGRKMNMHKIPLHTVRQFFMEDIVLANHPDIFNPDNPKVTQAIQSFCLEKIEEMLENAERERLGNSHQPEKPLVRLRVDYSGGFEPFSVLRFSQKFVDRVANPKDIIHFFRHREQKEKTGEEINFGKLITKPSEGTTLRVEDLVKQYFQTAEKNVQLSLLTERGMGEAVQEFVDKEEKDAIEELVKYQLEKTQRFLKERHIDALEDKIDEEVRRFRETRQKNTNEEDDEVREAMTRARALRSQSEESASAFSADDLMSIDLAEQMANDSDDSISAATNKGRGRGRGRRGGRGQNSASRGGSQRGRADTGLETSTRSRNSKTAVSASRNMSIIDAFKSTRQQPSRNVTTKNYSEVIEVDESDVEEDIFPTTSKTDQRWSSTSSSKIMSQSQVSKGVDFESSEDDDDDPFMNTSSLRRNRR

[3] = biological target: B1

B1
binding result [1]: binds

B2
binding result [2]: binds

B3
binding result [3]: binds
